T1: Human CD137 shuffle 4 (amino acids 89-114 replaced by wild boar CD137) (human, amino acids 89-114 from wild boar, UniProt Q07011 24-255)
T1 construct: also called shuffle construct 4
T1 chain: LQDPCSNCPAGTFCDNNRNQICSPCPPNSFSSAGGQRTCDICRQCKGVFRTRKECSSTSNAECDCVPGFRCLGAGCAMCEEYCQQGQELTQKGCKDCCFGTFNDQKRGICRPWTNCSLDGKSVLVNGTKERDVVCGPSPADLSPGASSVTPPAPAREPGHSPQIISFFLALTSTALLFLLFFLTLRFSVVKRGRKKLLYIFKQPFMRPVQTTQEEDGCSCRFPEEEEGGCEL

T2: Human CD137 shuffle 2 (amino acids 139-161 replaced by wild boar CD137) (human, amino acids 139-161 from wild …, UniProt Q07011 24-255)
T2 construct: also called shuffle construct 2
T2 chain: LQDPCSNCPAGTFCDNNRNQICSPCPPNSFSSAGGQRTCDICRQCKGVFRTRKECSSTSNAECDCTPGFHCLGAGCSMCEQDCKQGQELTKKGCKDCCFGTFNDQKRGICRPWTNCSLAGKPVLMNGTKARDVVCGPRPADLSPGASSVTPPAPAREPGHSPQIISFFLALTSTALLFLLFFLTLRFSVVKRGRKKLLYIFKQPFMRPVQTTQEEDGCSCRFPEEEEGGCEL

T3: Human CD137 shuffle 5 (amino acids 48-88 replaced by African elephant CD137) (human, amino acids 48-88 from African …, UniProt Q07011 24-255)
T3 construct: also called shuffle construct 5
T3 chain: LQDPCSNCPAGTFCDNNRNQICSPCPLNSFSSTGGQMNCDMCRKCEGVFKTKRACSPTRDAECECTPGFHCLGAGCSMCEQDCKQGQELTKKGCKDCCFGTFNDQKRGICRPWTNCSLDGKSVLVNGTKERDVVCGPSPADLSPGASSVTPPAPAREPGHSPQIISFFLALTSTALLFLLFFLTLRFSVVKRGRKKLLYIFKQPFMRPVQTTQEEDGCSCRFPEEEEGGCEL

T4: Human CD137 shuffle 3 (amino acids 115-138 replaced by wild boar CD137) (human, amino acids 115-138 from wild …, UniProt Q07011 24-255)
T4 construct: also called shuffle construct 3
T4 chain: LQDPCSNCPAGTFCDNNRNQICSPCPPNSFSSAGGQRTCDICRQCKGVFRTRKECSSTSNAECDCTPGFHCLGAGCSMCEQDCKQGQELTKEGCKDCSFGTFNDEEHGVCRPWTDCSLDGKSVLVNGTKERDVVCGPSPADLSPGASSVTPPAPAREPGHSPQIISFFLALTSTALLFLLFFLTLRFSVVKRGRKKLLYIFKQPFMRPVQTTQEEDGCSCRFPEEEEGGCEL

T5: Human CD137 shuffle 1 (amino acids 162-186 replaced by wild boar CD137) (human, amino acids 162-186 from wild …, UniProt Q07011 24-255)
T5 construct: also called shuffle construct 1
T5 chain: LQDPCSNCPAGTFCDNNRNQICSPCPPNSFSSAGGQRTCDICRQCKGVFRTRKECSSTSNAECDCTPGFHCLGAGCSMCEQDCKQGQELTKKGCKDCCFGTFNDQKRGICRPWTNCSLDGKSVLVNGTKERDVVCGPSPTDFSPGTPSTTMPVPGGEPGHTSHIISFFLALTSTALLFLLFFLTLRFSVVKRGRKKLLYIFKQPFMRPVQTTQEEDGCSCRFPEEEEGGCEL


Experiments:
Human CD40 = Human CD40 (human, UniProt P25942 21-277); test: cell-based or functional assay
Human CD137 (TNR9_Human) [1] = target: T6, Human CD137 (TNR9_Human) (human, UniProt Q07011 24-255); test: cell-based or functional assay
Target sequence in this assay (Q07011 24-255): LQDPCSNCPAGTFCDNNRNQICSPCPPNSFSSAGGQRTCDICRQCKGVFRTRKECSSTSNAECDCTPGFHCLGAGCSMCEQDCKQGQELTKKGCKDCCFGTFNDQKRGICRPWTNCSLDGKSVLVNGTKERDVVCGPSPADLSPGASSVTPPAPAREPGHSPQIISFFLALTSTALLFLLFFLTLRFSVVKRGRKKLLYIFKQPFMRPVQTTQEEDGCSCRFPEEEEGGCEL

Human CD137 (TNR9_Human) [2] = target: T6, Human CD137 (TNR9_Human); test: flow cytometry, HEK293-T17 cells transiently transfected with human CD137, antibody at 1 µg/mL, APC-labeled F(ab')2 secondary [cont.]
Description: (§1) FIG. 4: Binding of CD137 antibody clones to CD137 shuffle constructs expressed on HEK293-T17 cells. HEK293-T17 cells were transfected with the CD137 shuffle constructs, and with human CD137 (hCD137 wt), African elephant of wild boar CD137, as indicated. Binding of the different CD137 antibody clones to these constructs expressed on HEK293-T17 cells was measured by flow cytometry. Staining with polyclonal anti-CD137 antibody is shown as a control.
(§2) 3×10⁶ HEK293T-17 cells were seeded in T75 culture flasks (Greiner Bio-One, cat. no. 658175) in 20 mL RPMI 1640 GlutaMAX medium containing 10% FCS (Biochrom, cat. no. S 0115). After O/N incubation, cells were transiently […] with expression vectors encoding the shuffle constructs or the wild boar, African elephant or human CD137 downstream of a constitutively active human elongation factor-1 alpha (EF-1 alpha) promotor using TransIT®-LT1 Transfection Reagent, Mirus Bio (VWR International, cat. no. 731-0029), according to the manufacturer's instructions. The next day, cells were harvested using 1.5 mL Accutase (Sigma Aldrich, cat. no. A6964) (incubation at 37° C. for 5 min.) and flow cytometry was performed, essentially as described in Example 4, to measure surface expression of the shuffle constructs and the human, African elephant and wild boar CD137 and to measure binding of the antibody clones to the different shuffle constructs. To measure cell surface expression of the constructs, transduced cells were incubated with 1 μg/mL goat polyclonal anti-human CD137 (R&D Systems, cat. no. AF838) in FACS buffer (D-PBS supplemented with 5 mM EDTA [Sigma Aldrich, cat. no. 03690] and 5% (v/v) fetal bovine serum [FBS, Biochrom, cat. no. S 0115]) (4° C., 20 min.), followed by incubation with APC-labeled anti-goat IgG (H+L) (R&D Systems, cat. no. F0108) (4° C., 20 min.). Binding of the different CD137 antibody clones to cells expressing the shuffle constructs was measured by incubation of the transduced cells with 1 μg/mL of the antibody clones, followed by APC-labeled AffiniPure F(ab′)2 Fragment (1:50 final dilution; Jackson, cat. no. 109-136-127).

[3] = target: T1, Human CD137 shuffle 4 (amino acids …); test: flow cytometry on transfected HEK293T-17 cells
Description: as §2

[4] = target: T2, Human CD137 shuffle 2 (amino acids …); test: flow cytometry on transfected HEK293T-17 cells, 1 µg/mL antibody
Description: as §2

[5] = target: T3, Human CD137 shuffle 5 (amino acids …); test: as above
Description: as §2

[6] = target: T4, Human CD137 shuffle 3 (amino acids …); test: as above
Description: as §2

[7] = target: T5, Human CD137 shuffle 1 (amino acids …); test: as above
Description: as §2

Human CD137 (TNR9_Human) [8] = target: T6, Human CD137 (TNR9_Human); test: flow cytometry, HEK293-T17 cells transiently transfected with human CD137, antibody at 1 µg/mL, APC-labeled F(ab')2 secondary
Description: as §1, §2
Target sequence in this assay (Q07011 24-255): as above

[9] = target: T1, Human CD137 shuffle 4 (amino acids …); test: flow cytometry on transfected HEK293T-17 cells, 1 µg/mL antibody
Description: as §2

Human CD40, sequence (P25942 21-277): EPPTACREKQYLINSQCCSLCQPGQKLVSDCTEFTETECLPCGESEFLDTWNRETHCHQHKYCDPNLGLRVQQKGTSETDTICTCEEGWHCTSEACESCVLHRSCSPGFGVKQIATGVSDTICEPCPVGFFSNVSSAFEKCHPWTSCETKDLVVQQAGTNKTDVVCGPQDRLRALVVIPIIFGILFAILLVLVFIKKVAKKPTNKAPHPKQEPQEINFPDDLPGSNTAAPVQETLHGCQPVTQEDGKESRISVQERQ

luciferase activity (RLU) of NF-KB/293/GFP-Luc cells transduced with CD40, incubated with K562_CD137 (Human CD40) [ng/mL] | luciferase activity (RLU) of NF-KB/293/GFP-Luc cells transduced with CD137, incubated with K562_CD40 (Human CD137 (TNR9_Human) [1]) [ng/mL] | binding result (Human CD137 (TNR9_Human) [2]) | binding result [3] | binding result [4] | binding result [5] | binding result [6] | binding result [7] | binding result (Human CD137 (TNR9_Human) [8]) | binding result [9] | Binder
~100 | ~100 |  |  |  |  |  |  |  |  | CD40-001-FEALxCD137-004-FEAR (bispecific antibody, human IgG1, kappa) heavy 1: EVQLQQSGPDLVKPGASVKISCKTSGYTFTEYIMHWVKQSHGKSLEWIGGIIPNNGGTSYNQKFKDKATMTVDKSSSTGYMELRSLTSEDSAVYYCTRREVYGRNYYALDYWGQGTLVTVSSASTKGPSVFPLAPSSKSTSGGTAALGCLVKDYFPEPVTVSWNSGALTSGVHTFPAVLQSSGLYSLSSVVTVPSSSLGTQTYICNVNHKPSNTKVDKRVEPKSCDKTHTCPPCPAPEFEGGPSVFLFPPKPKDTLMISRTPEVTCVVVAVSHEDPEVKFNWYVDGVEVHNAKTKPREEQYNSTYRVVSVLTVLHQDWLNGKEYKCKVSNKALPAPIEKTISKAKGQPREPQVYTLPPSREEMTKNQVSLTCLVKGFYPSDIAVEWESNGQPENNYKTTPPVLDSDGSFLLYSKLTVDKSRWQQGNVFSCSVMHEALHNHYTQKSLSLSPGK light 1: DIQMTQTTSSLSASLGDRVTITCSASQGINNYLNWYQQKPDGTVKLLIYYTSSLHSGVPSRFSGSGSGTDYSLTISNLEPEDIATYYCQQYSNLPYTFGGGTKLEIKRTVAAPSVFIFPPSDEQLKSGTASVVCLLNNFYPREAKVQWKVDNALQSGNSQESVTEQDSKDSTYSLSSTLTLSKADYEKHKVYACEVTHQGLSSPVTKSFNRGEC heavy 2: QSLEESGGRLVTPGTPLTLTCTASGFSLSRYDMSWVRQAPGKGLEYIGVISSSGGTNYANWAKGRFTISKTSTTVDLKITSPTTEDTATYFCAREGDYWDFNLWGPGTLVTVSSASTKGPSVFPLAPSSKSTSGGTAALGCLVKDYFPEPVTVSWNSGALTSGVHTFPAVLQSSGLYSLSSVVTVPSSSLGTQTYICNVNHKPSNTKVDKRVEPKSCDKTHTCPPCPAPEFEGGPSVFLFPPKPKDTLMISRTPEVTCVVVAVSHEDPEVKFNWYVDGVEVHNAKTKPREEQYNSTYRVVSVLTVLHQDWLNGKEYKCKVSNKALPAPIEKTISKAKGQPREPQVYTLPPSREEMTKNQVSLTCLVKGFYPSDIAVEWESNGQPENNYKTTPPVLDSDGSFFLYSRLTVDKSRWQQGNVFSCSVMHEALHNHYTQKSLSLSPGK light 2: AQVLTQTPSSVSAAVGGTVTINCQASQSISNLLAWYQQKPGQPPKLLIYGASTLASGVPSRFSGSGSGTEFTLTISDLESDDAATYYCAGGFPGLDTVAAFGGGTEAVVTRTVAAPSVFIFPPSDEQLKSGTASVVCLLNNFYPREAKVQWKVDNALQSGNSQESVTEQDSKDSTYSLSSTLTLSKADYEKHKVYACEVTHQGLSSPVTKSFNRGEC
 |  | binds | no binding (tested: 1 µg/mL) | binds | binds | binds | binds |  |  | CD137 antibody clone 007 (rabbit) (antibody, human IgG1, kappa, V domains shown, also called Clone 7; CD137 clone 007) VH: QSLEESGGRLVTPGTPLTLTCTASGFSLSSYDVSWVRQAPGKGLEYIGFIGSDGSAHYATWVKGRFTISKTSTTVDLKITSPTTEDTATYFCARDWNDYWAHDLWGPGTLVTVSS VL: AQVLTQTTSPVSAAVGGTVTINCQASQIVTSKSALSWYQQKPGQPPRLLIYKASTLASGVPSRFSGSGSGTQFTLTISDLESDDAATYYCAGGYYNSGDLNPFGGGTEVVVKR
 |  |  |  | binds | binds | binds | binds | binds | binds | CD137 antibody clone 001 (rabbit) (antibody, human IgG1, kappa, V domains shown, also called Clone 1; CD137 clone 001) VH: QSVEESGGRLVTPGTPLTLTCTVSGFSLSSYAVSWVRQAPGKGLEWIGVIWNNGATHYATWAKGRFTISKASTTVDLKVTSPTTEDTATYFCARSANDAWSTYSDLWGQGTLVTVSS VL: DIVMTQTPASVEAAVGGTVTIKCQASQTITNYLSWYQQKPGQPPKLLIYKASTLTSGVSSRFKGSGSGTEFTLTISDLESDDAATYYCQNYYYGSSSGYGFVFGGGTEVVVKR
 |  | binds |  | binds | binds | binds | binds |  | binds | CD137 antibody clone 012 (rabbit) (antibody, human IgG1, kappa, V domains shown, also called Clone 12; CD137 clone 012) VH: QSVEESGGRLVTPGTPLTLTCTVSGFSLSDYYMTWVRQAPGKGLEYIGIMSGSGSTYYASWAKGRFTISKTSSTTLELKITSPTTEDTAIYFCARDGDYAGWGYATGAFDPWGPGTLVTVSS VL: AAVLTQTPSPVSAAVGGTVTISCQASQSVVGNSLLSWFQKKPGQPPKLLIYSASSLASGVPSRFKGSGSGTQFTLTISDLESDDAATYYCTGRYNSDTDTFVFGGGTEVVVKR
 |  |  | no binding (tested: 1 µg/mL) | binds | binds | binds | binds | binds |  | CD137 antibody clone 003 (rabbit) (antibody, human IgG1, kappa, V domains shown, also called Clone 3; CD137 clone 003) VH: QSVEESGGRLVTPGTPLTLTCTASGFTISSYHMIWVRQAPGEGLEWIGDIYGGTATTDYASWAKGRFTISKTSTTVDLKMTSLTTEDTATYFCARARYSGGSYANYVFNLWGQGTLVTVSS VL: DIVMTQTPASVEAAVGGTVTIKCQASQSISSYLAWYQQKPGQPPKLLIYRTSTLESGVPSRFKGSGSGTEFTLTISDLESADAATYYCQGYDWSSSNRYDNTFGGGTEVVVKR
